Data as given in US20050058639A1 (AstraZeneca / MedImmune, published 2005).

How the values were obtained:
[1] = target: T1, human monocyte chemo-attractant protein-1 (MCP-1) (human, UniProt P13500 24-99); experiment: cell-based or functional assay
[2] = target: T2, recombinant mouse JE/MCP-1 (mouse, UniProt P10148 24-148); experiment: ELISA, coated antigen
T2 construct: also called rmJE/MCP-1
Description: (§1) Determining cross-reactivity of anti-MCP-1 antibodies with other chemokines. ELISA plates (Fisher Cat. No. 12-565-136) were coated with 50 μl/well of MCP-1, MCP-2, MCP-3, MCP-4, RANTES, GRO-alpha, MIP-1 alpha, eotaxin, rat MCP-1 and mouse JE (2 μg/ml) in coating buffer (0.1 M carbonate buffer, pH 9.6, NaHCO₃ 8.4 g/L, then incubated at 4° C. overnight. After incubation, the plates were washed with washing buffer (0.05% Tween 20 in PBS) three times. 200 μL/well blocking buffer (0.5% BSA, 0.1% Tween 20, 0.01% Thimerosal in 1×PBS) were added and the plates incubated at room temperature for 1 hour. After incubation, the plates were washed with washing buffer three times. 50 μL/well of hybridoma supernatants, and positive and negative controls (positive control was anti-MCP-1 antibody purchased from R&D Sciences, and negative control was an antibody to Keyhole Limpet Hemocyanin produced at Abgenix) were added and the plates incubated at room temperature for 2 hours. After incubation, the plates were washed three times with washing buffer. […] After incubation, the plates were washed three times with washing buffer and 100 μL/well of TMB (BioFX Lab. Cat. #TMSK-0 100-01) was added and the plates allowed to develop for about 10 minutes.

human GRO/MGSA = target: T3, human GRO/MGSA (human, UniProt P09341 35-107); experiment: ELISA, coated antigen
T3 construct: also called hGRO/MGSA; GRO-alpha
T3 sequence (looked up): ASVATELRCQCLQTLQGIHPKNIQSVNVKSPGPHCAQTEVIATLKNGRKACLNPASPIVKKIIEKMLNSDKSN
Description: as §1

rat MCP-1 = rat MCP-1 (rat, UniProt P14844 24-148); experiment: ELISA, coated antigen
Description: as §1

recombinant human MCP-3 = target: T4, recombinant human MCP-3 (human, UniProt P80098 24-99); experiment: ELISA, coated antigen
T4 construct: also called rhMCP-3
Description: as §1

[3] = target: T1, human monocyte chemo-attractant …; experiment: ELISA, coated antigen
Description: as §1

human RANTES = target: T5, human RANTES (human, UniProt P13501 24-91); experiment: ELISA, coated antigen
T5 construct: also called hRANTES
T5 sequence (looked up): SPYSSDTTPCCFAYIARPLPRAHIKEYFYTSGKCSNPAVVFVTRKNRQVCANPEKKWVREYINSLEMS
Description: as §1

human eotaxin = target: T6, human eotaxin (human, UniProt P51671 24-97); experiment: ELISA, coated antigen
T6 construct: also called hEotaxin
Description: as §1

recombinant human MCP-4 = target: T7, recombinant human MCP-4 (human, UniProt Q99616 24-98, limits assumed); experiment: ELISA, coated antigen
T7 construct: also called rhMCP-4
Description: as §1

human MIP-1-alpha = target: T8, human MIP-1-alpha (human, UniProt P10147 24-92, limits assumed); experiment: ELISA, coated antigen
T8 construct: also called hMIP-1-alpha
T8 sequence (looked up): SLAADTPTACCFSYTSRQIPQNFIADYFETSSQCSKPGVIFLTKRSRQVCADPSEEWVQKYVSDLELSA
Description: as §1

recombinant human MCP-2 = target: T9, recombinant human MCP-2 (human, UniProt P80075 24-99); experiment: ELISA, coated antigen
T9 construct: also called rhMCP-2
T9 sequence (looked up): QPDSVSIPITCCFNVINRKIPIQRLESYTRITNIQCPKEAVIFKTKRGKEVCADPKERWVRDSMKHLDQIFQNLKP
Description: as §1

[4] = target: T1, human monocyte chemo-attractant …; experiment: ELISA, hybridoma supernatant on coated MCP-1
Description: Selection of candidate antibodies for ELISA. After 14 days of culture, hybridoma supernatants were screened for MCP-1-specific monoclonal antibodies. The ELISA plates (Fisher, Cat. No. 12-565-136) were coated with 50 μl/well of MCP-1 (2 μg/mL) in Coating Buffer (0.1 M Carbonate Buffer, pH 9.6, NaHCO₃8.4 g/L), then incubated at 4° C. overnight. After incubation, the plates were washed with Washing Buffer (0.05% Tween 20 in PBS) three times. 200 μl/well Blocking Buffer (0.5% BSA, 0.1% Tween 20, 0.01% Thimerosal in 1× PBS) were added and the plates incubated at room temperature for 1 hour. After incubation, the plates were washed with Washing Buffer three times. 50 μL/well of hybridoma supernatants, and positive and negative controls were added and the plates incubated at room temperature for 2 hours.
The positive control used throughout was XMG2 MCP-1 Group 1, footpad N160-7 and the negative control was XMG2 KLH Group 1, footpad L627-6. After incubation, the plates were washed three times with Washing Buffer. […] In the secondary screen, three sets of samples (positives in first screening) were screened, one set for hIgG detection, one set for hKappa detection, and one set for hlambda detection. After incubation, the plates were washed three times with Washing Buffer. 100 μL/well of TMB (BioFX Lab. Cat. #TMSK-0100-01) were added and the plates allowed to develop for about 10 minutes (until negative control wells barely started to show color), then 50 μL/well stop solution (TMB Stop Solution (BioFX Lab. Cat. #STPR-0100-01) were added and the plates read on an ELISA plate reader at wavelength 450 nm. The OD readings from the positive wells are presented in Table 9.

T6 sequence (P51671 24-97 limits assumed): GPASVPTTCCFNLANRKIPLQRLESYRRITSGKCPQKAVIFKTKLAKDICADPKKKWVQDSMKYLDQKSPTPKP
T1 sequence (P13500 24-99): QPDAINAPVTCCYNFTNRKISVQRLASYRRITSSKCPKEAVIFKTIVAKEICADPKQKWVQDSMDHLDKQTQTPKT
T4 sequence (P80098 24-99 limits assumed): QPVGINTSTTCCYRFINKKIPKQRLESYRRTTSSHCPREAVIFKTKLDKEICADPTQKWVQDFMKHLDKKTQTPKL
T2 sequence (P10148 24-148 limits assumed): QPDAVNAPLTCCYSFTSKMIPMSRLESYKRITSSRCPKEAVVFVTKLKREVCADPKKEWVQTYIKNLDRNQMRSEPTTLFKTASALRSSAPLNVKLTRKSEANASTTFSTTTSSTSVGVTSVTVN
rat MCP-1, sequence (P14844 24-148 limits assumed): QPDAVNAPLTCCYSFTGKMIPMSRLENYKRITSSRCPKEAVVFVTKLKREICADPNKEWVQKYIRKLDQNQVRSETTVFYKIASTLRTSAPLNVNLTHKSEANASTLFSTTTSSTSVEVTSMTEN
T7 sequence (Q99616 24-98 limits assumed): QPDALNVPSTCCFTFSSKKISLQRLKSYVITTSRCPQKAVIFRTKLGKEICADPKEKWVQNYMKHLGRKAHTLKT

B1: anti-MCP-1 mAb 1.5.1 (antibody, V domains shown)
VH: QVQLVQSGAEVKKPGASVKVSCKVSGYTLTELSMHWVRQAPGKGLEWMGGFDPEDDETIYAQKFQGRVTMTEDTSTDTAYMELSSLRSEDTAVYFCATNDFWSGYFDCWDQGTLVTVSS
VL: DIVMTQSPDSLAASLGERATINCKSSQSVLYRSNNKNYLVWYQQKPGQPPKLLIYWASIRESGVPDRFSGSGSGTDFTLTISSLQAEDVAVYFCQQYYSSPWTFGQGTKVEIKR
IC50 Ca++ Flux [1]: 0.21 µg/mL | IC50 Chemotaxis [1]: 0.34 µg/mL | ELISA OD [2]: 0.043 OD450 | ELISA OD (human GRO/MGSA): 0.048 OD450 | ELISA OD (rat MCP-1): 0.045 OD450 | ELISA OD (recombinant human MCP-3): 0.069 OD450 | ELISA OD [3]: 1.18 OD450 | ELISA OD (human RANTES): 0.049 OD450 | ELISA OD (human eotaxin): 0.043 OD450 | ELISA OD (recombinant human MCP-4): 0.05 OD450 | ELISA OD (human MIP-1-alpha): 0.041 OD450 | ELISA OD (recombinant human MCP-2): 0.047 OD450 | ELISA OD-MCP-1 [4]: 0.51 OD450

B2: anti-MCP-1 mAb 1.12.1 (antibody, V domains shown)
VH: QVQLVQSGAEVKKPGASVKVSCKVSGYTLTELSMHWVRQAPGKGLEWMGGFDPEDGETIYAQKFQGRVTMTEDTSTDTAYMELSSLRSEDTAVYYCATNDFWSGYYNYWGQGTLVTVSS
VL: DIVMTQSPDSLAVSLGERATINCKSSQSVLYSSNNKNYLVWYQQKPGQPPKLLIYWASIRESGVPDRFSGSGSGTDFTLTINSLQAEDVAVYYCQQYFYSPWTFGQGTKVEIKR
IC50 Ca++ Flux [1]: 0.13 µg/mL | IC50 Chemotaxis [1]: 0.35 µg/mL | ELISA OD [2]: 0.042 OD450 | ELISA OD (human GRO/MGSA): 0.046 OD450 | ELISA OD (rat MCP-1): 0.062 OD450 | ELISA OD (recombinant human MCP-3): 0.046 OD450 | ELISA OD [3]: 0.933 OD450 | ELISA OD (human RANTES): 0.046 OD450 | ELISA OD (human eotaxin): 0.044 OD450 | ELISA OD (recombinant human MCP-4): 0.044 OD450 | ELISA OD (human MIP-1-alpha): 0.046 OD450 | ELISA OD (recombinant human MCP-2): 0.042 OD450 | ELISA OD-MCP-1 [4]: 4 OD450

B3: anti-MCP-1 mAb 1.8.1 (antibody, V domains shown)
VH: QVQLVQSGAEVKKPGASVKVSCKVSGHIFTELSIHWVRQAPGKGLEWMGGFDPEDGETIYAQKFQGRVTMTEDTSTDTVYMELSSLRSEDTAVYYCATNDFWSGYFDYWGQGTLVTVSS
VL: DIVMTQSPGSLAVSLGERATINCKSSQSILFRSNNKNYLTWYQQKPGQPPKLLIYWASIRESGVPDRFSGSGSGSNFTLTITSLQAEDVAIYYCQQYYSSPWTFGQGTKVEIKR
IC50 Ca++ Flux [1]: 0.26 µg/mL | IC50 Chemotaxis [1]: 0.88 µg/mL | ELISA OD [2]: 0.045 OD450 | ELISA OD (human GRO/MGSA): 0.06 OD450 | ELISA OD (rat MCP-1): 0.049 OD450 | ELISA OD (recombinant human MCP-3): 0.054 OD450 | ELISA OD [3]: 1.16 OD450 | ELISA OD (human RANTES): 0.045 OD450 | ELISA OD (human eotaxin): 0.047 OD450 | ELISA OD (recombinant human MCP-4): 0.046 OD450 | ELISA OD (human MIP-1-alpha): 0.045 OD450 | ELISA OD (recombinant human MCP-2): 0.048 OD450 | ELISA OD-MCP-1 [4]: 3.47 OD450

B4: anti-MCP-1 mAb 1.10.1 (antibody, V domains shown)
VH: QVQLVQSGAEVKKPGASVKVSCKVSGYTLTELSMHWVRQAPGKGLEWMGGFDPEDGETIYAQKFQGRVTMTEDTSTDTAYMELSSLRSEDTAVYYCATNEFWSGYFDYWGQGTLVTVSS
VL: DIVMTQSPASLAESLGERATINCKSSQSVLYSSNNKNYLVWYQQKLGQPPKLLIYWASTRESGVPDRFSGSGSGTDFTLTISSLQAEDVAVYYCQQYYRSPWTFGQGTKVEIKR
IC50 Ca++ Flux [1]: 0.18 µg/mL | IC50 Chemotaxis [1]: 1.2 µg/mL | ELISA OD [2]: 0.041 OD450 | ELISA OD (human GRO/MGSA): 0.043 OD450 | ELISA OD (rat MCP-1): 0.059 OD450 | ELISA OD (recombinant human MCP-3): 0.047 OD450 | ELISA OD [3]: 1.26 OD450 | ELISA OD (human RANTES): 0.042 OD450 | ELISA OD (human eotaxin): 0.05 OD450 | ELISA OD (recombinant human MCP-4): 0.052 OD450 | ELISA OD (human MIP-1-alpha): 0.043 OD450 | ELISA OD (recombinant human MCP-2): 0.04 OD450 | ELISA OD-MCP-1 [4]: 3.85 OD450

B5: anti-MCP-1 mAb 1.11.1 (antibody, V domains shown)
VH: QVQVVQSGAEVKNPGASVKVSCKVSGSTLTELSMHWVRQAPGKGLEWMGGFDPEDGETIYAQKFQGRVTMTEDTSTDTVYMELSSLRSEDTAVYYCATNDFWSGYFDYWGQGTLVTVSS
VL: DIVMTQSPDSLAVSLGERATITCKSSQTVLYSSNNKNYLVWYQQKSGQPPKLLIHWASIRESGVPDRFSGSGSGTDFTLTISSLQAEDVAVYYCQQYYSSPWTFGQGTKVEIKR
IC50 Ca++ Flux [1]: 0.098 µg/mL | IC50 Chemotaxis [1]: 0.81 µg/mL | ELISA OD [2]: 0.041 OD450 | ELISA OD (human GRO/MGSA): 0.042 OD450 | ELISA OD (rat MCP-1): 0.052 OD450 | ELISA OD (recombinant human MCP-3): 0.043 OD450 | ELISA OD [3]: 1.34 OD450 | ELISA OD (human RANTES): 0.042 OD450 | ELISA OD (human eotaxin): 0.049 OD450 | ELISA OD (recombinant human MCP-4): 0.043 OD450 | ELISA OD (human MIP-1-alpha): 0.042 OD450 | ELISA OD (recombinant human MCP-2): 0.041 OD450 | ELISA OD-MCP-1 [4]: 3.9 OD450
